Assay results taken from US20240309103A1 (Regeneron, published 2024).

T1: monkey NPR1 extracellular domain expressed with a C-terminal myc-myc-hexahistidine (mfNPR1-MMH) (monkey, UniProt P16066 33-473 (human entry))
T1 construct: also called monomeric monkey NPR1
T1 chain: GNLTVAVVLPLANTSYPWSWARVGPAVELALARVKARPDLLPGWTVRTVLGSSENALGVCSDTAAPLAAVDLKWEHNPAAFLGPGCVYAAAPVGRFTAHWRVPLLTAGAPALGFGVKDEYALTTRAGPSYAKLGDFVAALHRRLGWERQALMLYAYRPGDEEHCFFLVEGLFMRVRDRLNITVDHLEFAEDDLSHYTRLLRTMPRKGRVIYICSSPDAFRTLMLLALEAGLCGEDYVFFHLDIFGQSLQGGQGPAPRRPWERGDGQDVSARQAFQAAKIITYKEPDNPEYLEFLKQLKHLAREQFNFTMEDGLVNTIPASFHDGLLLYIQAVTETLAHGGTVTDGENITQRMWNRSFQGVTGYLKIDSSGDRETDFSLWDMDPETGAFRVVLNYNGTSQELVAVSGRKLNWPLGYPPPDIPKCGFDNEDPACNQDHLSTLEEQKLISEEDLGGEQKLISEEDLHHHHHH

T2: human NPR1 extracellular domain expressed with a C-terminal mouse IgG2a (hNPR1-mFc) (human)
T2 construct: also called hNPR1-Fc; human NPR1 dimer
T2 chain: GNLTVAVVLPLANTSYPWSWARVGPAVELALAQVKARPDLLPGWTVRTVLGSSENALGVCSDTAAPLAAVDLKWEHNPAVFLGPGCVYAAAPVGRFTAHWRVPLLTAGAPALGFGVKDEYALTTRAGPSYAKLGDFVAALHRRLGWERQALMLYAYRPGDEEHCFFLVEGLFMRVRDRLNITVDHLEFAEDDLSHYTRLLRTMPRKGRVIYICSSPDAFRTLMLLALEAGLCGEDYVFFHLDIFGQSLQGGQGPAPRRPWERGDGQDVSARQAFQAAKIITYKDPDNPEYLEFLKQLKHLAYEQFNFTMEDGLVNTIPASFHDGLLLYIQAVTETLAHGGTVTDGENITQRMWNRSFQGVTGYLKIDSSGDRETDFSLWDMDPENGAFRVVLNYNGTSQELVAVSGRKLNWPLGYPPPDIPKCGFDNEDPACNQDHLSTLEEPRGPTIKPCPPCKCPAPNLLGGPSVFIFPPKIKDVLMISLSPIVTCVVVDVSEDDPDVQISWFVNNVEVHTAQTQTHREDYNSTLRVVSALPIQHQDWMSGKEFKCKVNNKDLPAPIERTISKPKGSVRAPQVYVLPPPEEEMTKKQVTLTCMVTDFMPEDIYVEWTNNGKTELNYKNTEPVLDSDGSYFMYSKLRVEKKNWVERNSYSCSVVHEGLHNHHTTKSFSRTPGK


Columns and labels:
[1] = target: T3, human NPR1 extracellular domain expressed with a C-terminal myc-myc-hexahistidine (hNPR1-MMH) (human, UniProt P16066 33-473); assay: SPR, mAb captured, 25 C
T3 construct: also called hNPR.mmh; monomeric human NPR1
In short: (§1)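 Binding of NPR1 reagents to anti-NPR1 antibodies immobilized via anti-human Fc capture was measured by SPR in pH 7.4 HEPES/NaCl/EDTA/Tween buffer. Affinities are equilibrium KD values.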

[2] = target: T1, monkey NPR1 extracellular domain …; assay: SPR, mAb captured, 25 C
In short: as §1

[3] = target: T4, mouse NPR1 extracellular domain expressed with a C-terminal myc-myc-hexahistidine (mNPR1-MMH) (mouse, UniProt P18293 29-469); assay: SPR, mAb captured, 25 C
In short: as §1

[4] = target: T2, human NPR1 extracellular domain …; assay: SPR, mAb captured, 25 C
In short: as §1

[5] = target: T4, mouse NPR1 extracellular domain …; assay: SPR, mAb captured, 37 C
In short: as §1
Target sequence in this assay (P18293 other isoform, or with tags, fused parts or gaps): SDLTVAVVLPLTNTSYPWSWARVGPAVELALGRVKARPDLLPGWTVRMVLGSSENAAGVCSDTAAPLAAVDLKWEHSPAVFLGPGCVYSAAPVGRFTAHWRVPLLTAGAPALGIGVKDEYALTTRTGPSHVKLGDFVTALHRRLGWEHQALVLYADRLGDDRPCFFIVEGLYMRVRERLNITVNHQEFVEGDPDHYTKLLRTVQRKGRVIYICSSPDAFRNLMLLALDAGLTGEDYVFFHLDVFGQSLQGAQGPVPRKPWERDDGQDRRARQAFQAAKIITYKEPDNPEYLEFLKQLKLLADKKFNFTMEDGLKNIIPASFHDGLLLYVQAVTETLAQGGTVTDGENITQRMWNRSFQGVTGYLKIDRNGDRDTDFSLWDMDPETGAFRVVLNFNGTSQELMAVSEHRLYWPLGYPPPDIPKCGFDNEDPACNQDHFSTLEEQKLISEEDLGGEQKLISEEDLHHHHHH

[6] = target: T2, human NPR1 extracellular domain …; assay: SPR, mAb captured, 37 C
In short: as §1

T3 sequence (P16066 other isoform, or with tags, fused parts or gaps): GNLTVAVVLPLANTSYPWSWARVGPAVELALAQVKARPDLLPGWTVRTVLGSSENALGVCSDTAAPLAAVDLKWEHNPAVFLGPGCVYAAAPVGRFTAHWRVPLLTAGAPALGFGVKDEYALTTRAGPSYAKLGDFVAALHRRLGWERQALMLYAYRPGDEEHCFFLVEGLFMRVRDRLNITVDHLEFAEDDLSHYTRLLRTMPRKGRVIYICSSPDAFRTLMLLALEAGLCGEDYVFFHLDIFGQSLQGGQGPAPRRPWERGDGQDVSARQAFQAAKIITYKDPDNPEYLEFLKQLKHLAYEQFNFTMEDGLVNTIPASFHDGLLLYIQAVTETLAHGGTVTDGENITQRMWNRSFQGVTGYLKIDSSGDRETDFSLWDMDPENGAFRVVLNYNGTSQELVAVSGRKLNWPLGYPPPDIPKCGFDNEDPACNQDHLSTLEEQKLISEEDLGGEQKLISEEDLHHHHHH

Row | Binder | 100 nM Ag Bound (RU) [1] | Kd [1] | koff [1] | kon [1] | t½ [1] | 100 nM Ag Bound (RU) [2] | Kd [2] | koff [2] | kon [2] | t½ [2] | 100 nM Ag Bound (RU) [3] | binding result [3] | 100 nM Ag Bound (RU) [4] | Kd [4] | koff [4] | kon [4] | t½ [4] | 100 nM Ag Bound (RU) [5] | 100 nM Ag Bound (RU) [6] | Kd [6] | also measured
1 | mAb22035 (antibody, V domains shown) VH: EVQLVESGGGLVQPGRSLRLSCAASGFTFDDYAMHWVRQAPGKGLEWVSGISWNSGTIGYADSVKGRFTMSRDNAKNSLYLQMNSLRPEDTALYYCAKDMGVSLALWGAFDIWGQGTMVTVSS VL: DIQMTQSPSSLSASVGDKVTITCRASQNIRTYLNWYQQKPGKAPKVLISTASSLQSGVPSRFSGSGSGTDFTLTISSLQPEDFAVFYCQQSFGIPRTFGQGTKVEIK | 210 RU | 0.738 nM | 0.00015 s⁻¹ | 203000 M⁻¹ s⁻¹ | 1.29 h | 245 RU | 0.336 nM | 0.000143 s⁻¹ | 426000 M⁻¹ s⁻¹ | 1.35 h | 0 RU | no binding (tested: 100 nM) | 198 RU | 0.365 nM | 8.2e-05 s⁻¹ | 225000 M⁻¹ s⁻¹ | 2.35 h | 1 RU | 257 RU | 0.2 nM | koff [6]: 0.000127 s⁻¹; kon [6]: 636000 M⁻¹ s⁻¹; t½ [6]: 1.51 h
2 | mAb22033 (antibody, V domains shown) VH: QVQLVQSGAEVKKPGASVTVSCKASGYTFTDYYMHWVRQAPGQGLEWMGWIKPNSGGTNSAQRFQGRITMTWDTSISTAYMELSRLRSDDTAVYYCSRGGPVMNYYYYYGMDVWGQGTTVTVSS VL: NIQMTQSPSSLSASVGDRVTITCRASQSIDSYLNWYQQKPGKAPKLLIYVASSLQSGVPSRFSGSGSGKDFTLTISSLQPEDFATYYCQQSYSIPTFGQGTRLEIK | 30 RU | 47.5 nM | 0.000406 s⁻¹ | 8550 M⁻¹ s⁻¹ | 0.473 h | 79 RU | 16.2 nM | 0.000291 s⁻¹ | 17900 M⁻¹ s⁻¹ | 0.66 h | 0 RU | no binding (tested: 100 nM) | 56 RU | 1.03 nM | 6.38e-05 s⁻¹ | 61800 M⁻¹ s⁻¹ | 3.02 h | 1 RU | 75 RU | 3.56 nM | koff [6]: 0.000131 s⁻¹; kon [6]: 36800 M⁻¹ s⁻¹; t½ [6]: 1.47 h
